In the nanobody polyreactivity screen of Harvey et al. (2022):

Experiment: yeast display, Sf9 membrane polyspecificity reagent, FACS + sequencing; frameworks hold sequencing errors
Outline: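 Nanobodies came from a synthetic yeast display library in Saccharomyces cerevisiae BJ5465, induced with galactose for 36–48 hours and stained for 1 hour at 4 °C with 10% biotinylated, detergent-solubilized Sf9 membrane reagent. Cells were enriched on streptavidin microbeads and then FACS-sorted, with low and high (top ~1%) gates set on anti-HA fluorescence for expression and streptavidin fluorescence for reagent binding. Each polyreactivity label reflects the gate a clone came from. Genes were amplified by colony PCR, sequenced by MiSeq 2 × 250 and filtered by CDR length.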

Sequence: QVQLVESGGGLVQAGGILRLSCAASGFTFPWYTMGWYRQAPGKERELVAAISKSGGSTYYADSVKGRFTISRDNAKNTVFLQMNSLKPEDTAVYYCAARGNLYVGGDERFWGQGTQVTVSS
- polyreactivity (PSR sort gate): high polyreactivity

Sequence: QVQLVESGGGLVQAGGSLRLSCAASGGIFKSNTMGWYRQAPGKERELFAAITSGGSTNYADSVKGRFTISRDNAKNTVYLQMNSLKPEDTAVYYCNTDDRYYTPSRAVFQYDYWGQGTQVTVSS
- polyreactivity (PSR sort gate): low polyreactivity

Sequence: QVQLVESGGGLVQAGGSLRLSCAASGSTFAYYTMGWYRQAPGKERELVAAITSGGRTTYADSVKGRFTISRDNAKNTVYLQMNSLKPEDTAVYYCAKGRKPGYYYWGQGTQVTVSS
- polyreactivity (PSR sort gate): high polyreactivity

Sequence: QVQLVESGGGLVQAGGSLRLICAASGLTFGSYAMGWYRQAPGKERELVAAISRSGGSTYYADSVKGRFTISRDNAKNTVYLQMNSLKPEDTAVYYCNAVNPYYAPTDRRVGYDYWGQGTQVTVSS
- polyreactivity (PSR sort gate): high polyreactivity

Sequence: QVQLEESGGGLVQAGGSLRLSCDASGFTFAYYAMGWYRPAPGKEREFVAAITKGGGSTNYADSVKGRFTISRDNAKNTVYLQMNSLKPEDTAVYYCNADYFVWYIGRVFSRYGYWGLGTQVTVSS
- polyreactivity (PSR sort gate): low polyreactivity

Sequence: QVQLVESGGGLVQAGGSLRLSCAASGRIFSANAMGWYRQAPGKERELVAISWTGGSTYYADSVKGRFTISRDNAKNTVYLQMNSLKPEDTAVYYCAKERYGKYFGSVDYWGQGTQVTVSS
- polyreactivity (PSR sort gate): low polyreactivity

Sequence: QVQLVESGGGLVQAGGSLRLSCAASGSICGRYAMGWYRQAPGKDRELVAAIRWRSGSTYYADSVKGRFTISRDNAKNSVYLHMNSLKPEDTAVYYCAVQRSYVGPRQYNYWGQGTQVTVSS
- polyreactivity (PSR sort gate): high polyreactivity

Sequence: QVQLVESGGGLVQAGGSLRLSCAASGSTFNKYTMGWYRQAPGKERELVAAISRIGGSTYYADSVKGRFTISRDNAKNTVYLQMNSLKPEDTAVYYCAAPYPIGHDWGQGTQVTVSS
- polyreactivity (PSR sort gate): low polyreactivity

Sequence: QVQLVESGGGLVQAGCSLRLSCAASGFIFIRYAKGWYRQAPGQESELVASISSGGSTYYADSVKGRFTISRDNAKNTVYLQMNSLKPEDTAVYYCAAVFSKGLEGDYWGQGTQVTVSS
- polyreactivity (PSR sort gate): high polyreactivity

Sequence: QVQLVESGGGLVQAGGSLRLSCDASGIIFTFYTMGWYRQAPGKERELVAAITWSGGSTNYADSVKGRFTISRDNAKNTVYLQMNSLKPEDTAVYYCAAQGYPQSPPWEDYWGQGTQVTVSS
- polyreactivity (PSR sort gate): low polyreactivity

Sequence: QVQLVESGGGLVQAGGSLRLSCAASGRIFSKYAMGWYRQAPGKERELVAAISNGGSTNYADTVKGRFTISRDNAKNTVYLQMNSLKPEDTAVYYCAKQDRVLYGGYDSWGQGTQVTVSS
- polyreactivity (PSR sort gate): low polyreactivity

Sequence: QVQLVESAGRLVQAGGSLRLSCSASGSIFDWYAMGWYRQEPGKERELVAAISWSGGSTYYADSVKGRFTISRDNAKNTVYLQMNSLKPEDSAVYYCYAVFLYFNDDKFDNWGQGTQVTVSS
- polyreactivity (PSR sort gate): low polyreactivity

Sequence: QVHLVETGGGLVQAGGSLRLSCAASGSIFSSYHMVWYRQAPGKERELVASISSGGSTNYADSVKGRFTISRDNAKNTVYLHMNSLNPEVTAVYYCNVDLYNWRGDSTGYDYWGQGTQVTVSS
- polyreactivity (PSR sort gate): low polyreactivity

Sequence: QVQLVESGGGLVQAGGSLRLSCAASGSTFEFNDMGRYRPAPGKERELVASIRHSDGSRYYADSVKGRFTISRDNAKNTVYLQMIILKPEDTAVYDCNKAFQWSGGQVSYDYWGQGTQVTVSS
- polyreactivity (PSR sort gate): low polyreactivity

Sequence: QVQLVESGGGLVQAGGSLRLSCAASGRIFRINGMGWYRQAPGKEREFVAAITSGGGTYYADSVKGRFTISRDNAKNTVYLQMNSLKPEDTAVYYCAVRRRYGDDYWGQGTQVTVSS
- polyreactivity (PSR sort gate): high polyreactivity

Sequence: QVQLVDSGGGLVQAGGSLRLSCAASGLTITVYVMGWYRQAPGKERELVAAIDWSGGSTYYADSVKGRFTISRDNAKNTVYLQMNSLKPEDTAVYYCASETTDYAYYGFTYDYWGQGTQVTVSS
- polyreactivity (PSR sort gate): low polyreactivity

Sequence: QVQLVESGGGLVQAGGSLRLSCAASGFTFGTNAMGWYRQAPGKERELVATISARGARTNYADSVKGRFTISRDNAKNTVYLQMNSLKPEDTAVYYCAADPGPHRYSYDYWGQGTQVTVSS
- polyreactivity (PSR sort gate): high polyreactivity

Sequence: QDQHVESGGGLVQAGGSLRLSCAASGRTFYRNAMGWYRQAPGKEREFVAVISVSCGSTYYADSVKGRFTISRDNAKNTVYLQMNSLKPEDTAVYYCAKRGPVRKTAYDYCGQGTQVTVSS
- polyreactivity (PSR sort gate): low polyreactivity

Sequence: QVQLVESGGGLVQAGGSLRLSCAASGSTFEYYAMGWYRQAPGKERELVATITLIAGSTYADSVKGRFTISRDNAKNTVYLQMNSLKPEDTAVYYCAADDGGYESPEFVYGGRGDYWGQGTQVTVSS
- polyreactivity (PSR sort gate): low polyreactivity

Sequence: QVQLVESGGGLVQAGGRLRLSCAASGRTSFDYSMGWYRQAPGKDRELVAAITSTGGSTYYADSVKGRFTISRDNAKYTVYLQMNSLKPEDTAVYYCAAVWFTHWGQYQVLEVLYDYWGQGTQVTVSS
- polyreactivity (PSR sort gate): low polyreactivity

Sequence: QVQLVESGGGLVQAGGSLRISCAASGSIFSWKDMGWYRQAPGKERELVAAITSGGSTYYADSVKGRFTISRDNAKNTVYLQMNSLKPEDTAVYYCAAVFLLFGFEWSYDYWGQGTQVTVTS
- polyreactivity (PSR sort gate): low polyreactivity

Sequence: QVQLVESGGGLVQSGGSLRLSCAASGRIFRKYVMAWYRPAPGNERELVATISNRVGSTYYADSVKGRFTISRDKAKNTVYLQMNSLKPEDTAVYYCAAVSSYTAYDYWGQGTQVTVSS
- polyreactivity (PSR sort gate): high polyreactivity

Sequence: QVQLVESGGGLVQAGGSLRLSCAASGRIFTWYAMGWYRQAPGKERELVATISTGGSTNYADSVKGRFTISRDNAKNTVYLQMNSLKPEDTAVYYCAAKWPWSPNAFYYWGQGTQVTVSS
- polyreactivity (PSR sort gate): high polyreactivity

Sequence: QVQLVESGGGLVQAGGSLRLSCAASGRILYKYSMGWYRQAPGKERELVAAINRSGGRTYYADSVKGRFTISRDNAKNTVYIQMNSLKPEDTAVYYCAARNPTSYGQFDYLGQGTQVTVSS
- polyreactivity (PSR sort gate): high polyreactivity

Sequence: QVQLVESGGGLVQAGCSLRLSCAASGRIFTSNAMGWYRQAPGTERELVAVISRRGGSTYYADSVKGRFTISRDNAMNTVYLQMNSLKPEDTAVYYCARRPYSYTRYEYWGQGTQVTVSS
- polyreactivity (PSR sort gate): low polyreactivity

Sequence: QVQLVESGGGLVQAGGSLRLSCAASGSIFYYNAMGWYIQAPGKEREFVAAISSSGGSTYYADSVMGRFTISRDNAKNNVYLQMYRLKPEDTAVYYCAAKLRHWAHHTKYDYWGQGTQLTVSS
- polyreactivity (PSR sort gate): low polyreactivity

Sequence: QVQLVESGGGLVQAGGSLRLSCAASGSTFYSYAMGWYRQAPGKERELVASITRGGSTNYADSVKGRFTISRDNAKNTVYLQMNSLKPEDTAVYYCITRGNARMDYWGQGTQVTVSS
- polyreactivity (PSR sort gate): high polyreactivity

Sequence: QVQLVESGGGLVQAGGSLRLSCAASGRTYWHNTMGWYRQAPGKERELVAAINGGGGSTYYADSVKGRFTISRDNAKNTVYLQMNSLKPEDTAVYYCSARQGVVKGGRGYGYWGQGTQVTVSS
- polyreactivity (PSR sort gate): high polyreactivity

Sequence: QVQLVESGGGLVQAGGSLRLSCAASGRISFRYAMGWYRQAPGKERELVAAINRGGITNYADSVKGRFTISRDNAKNTVYLQMNSLKPEDTAVYYCAARYASPRYKSKIAYWGQGTQVSVSS
- polyreactivity (PSR sort gate): high polyreactivity

Sequence: QVQLVESGGGLVQAGGSLRLSCAASGFIFSVNTMGSYRQAPGKERELVAAISGSGGSTYYADSVKGRFTISRDNAKNTVYLQMNSLKPEDTAVYYCAARYTVTYDYWGQGTQVTVSS
- polyreactivity (PSR sort gate): high polyreactivity

Sequence: QVQLVESGGGLVQAGGSLRLSCAASGSTFEYNAMGWYRQAPGKERELVASSTNYADSVKGRFTISRDNAKNTVYLQMNSLKPEDTAVYYCARVQGVNRNHDYWGQGTQVTVSS
- polyreactivity (PSR sort gate): low polyreactivity

Sequence: QVQLVESGGGLVQAGGSLRLSCAASGSIFQGNAMGWYRQAPGKERELVAAISSRGGTTYYADSVKGRFTISRDNAKNTVYLQMNSLKPEDTAVYYCARDSGYYWYYRYGYWGQGTQVTVSS
- polyreactivity (PSR sort gate): high polyreactivity
